Residue numbers refer to the chain shown, from its start. Blank lines part the entries; values can stand above or below the binder they belong to.
Tests used:
GST-IPA1 fusion protein = biological target: T1, GST-IPA1 fusion protein (rice (Oryza sativa), UniProt Q7EXZ2 1-417); assay: pull-down; about 0.5 μg GST-IPA1 bound to GST beads at 4°C for 2 h, the same amount of His-GS2 incubated for 2 h; 150 mM KCl, 50 mM Tris-HCl pH 7.5, 0.01% NP-40; detected with His and GST antibodies; details: both partners purified
T1 construct: IPA1/OsSPL14 of rice, full-length CDS in pGEX-4T-1; source: E. coli BL21 (DE3), purified on glutathione beads
T1 sequence (looked up): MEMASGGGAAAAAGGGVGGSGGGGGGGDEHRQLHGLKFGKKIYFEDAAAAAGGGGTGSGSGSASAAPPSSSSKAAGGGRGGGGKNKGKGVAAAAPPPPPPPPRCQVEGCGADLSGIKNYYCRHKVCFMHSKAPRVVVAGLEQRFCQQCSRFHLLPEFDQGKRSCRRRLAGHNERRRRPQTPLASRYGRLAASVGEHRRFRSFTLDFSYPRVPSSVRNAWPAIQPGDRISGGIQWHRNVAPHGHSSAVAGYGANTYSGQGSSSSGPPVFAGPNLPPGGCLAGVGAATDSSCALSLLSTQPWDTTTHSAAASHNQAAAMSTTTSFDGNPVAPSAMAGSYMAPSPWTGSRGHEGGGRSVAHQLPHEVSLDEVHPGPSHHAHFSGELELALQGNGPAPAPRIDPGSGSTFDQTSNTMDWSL

[1] = biological target: T2, GS2TM (miR396 target-site mutant) (Oryza sativa (rice), GS2TM plants?, UniProt Q6ZIK5 1-394, S163K); assay: EMSA; EMSA: 20 min at 25 C, 4% acrylamide gel, biotin probes (Beyotime GS008/GS009); buffer, salt and pH not stated; details: protein: recombinant; tags: GST; label: biotin; blunt
T2 sequence: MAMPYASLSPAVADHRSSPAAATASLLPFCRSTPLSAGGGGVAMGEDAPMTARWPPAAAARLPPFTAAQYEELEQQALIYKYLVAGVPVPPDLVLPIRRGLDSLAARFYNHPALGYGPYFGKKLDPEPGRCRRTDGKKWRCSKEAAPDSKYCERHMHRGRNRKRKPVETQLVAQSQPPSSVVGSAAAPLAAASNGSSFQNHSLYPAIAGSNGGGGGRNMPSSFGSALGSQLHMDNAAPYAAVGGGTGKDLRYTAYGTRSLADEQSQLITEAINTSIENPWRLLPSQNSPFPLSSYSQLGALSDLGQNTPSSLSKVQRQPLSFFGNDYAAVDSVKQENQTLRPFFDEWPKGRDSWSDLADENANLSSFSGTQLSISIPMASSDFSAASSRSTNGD

GS2 (OsGRF4) = biological target: T3, GS2 (OsGRF4) (Oryza sativa (rice), ZH11?, UniProt Q6ZIK5 1-394); assay: as above; details: protein: recombinant; tags: GST; label: biotin; blunt
T3 sequence: T2 sequence with K163S

binding result (GST-IPA1 fusion protein): binds
B1: His-GS2 fusion protein (natural protein, rice (Oryza sativa), UniProt Q6ZIK5 1-394, looked up)
chain: T2 sequence with K163S
notes: GS2/OsGRF4 of rice, full-length CDS in pET28a

B2: GCCA core motif probe (GS2-EMSA) (dsDNA)
DNA 1: CCTGTCAAAGCCGGCCATCGCTGCCGGCTG
DNA 2: CAGCCGGCAGCGATGGCCGGCTTTGACAGG
binding result [1]: binds
binding result (GS2 (OsGRF4)): binds

Source: article PMC11840411, “GS2 cooperates with IPA1 to control panicle architecture” (The New Phytologist, 2025)
